In PMC1906830, “In vivo optical imaging of integrin αV-β3 in mice using multivalent or monovalent cRGD targeting vectors” (Molecular Cancer, 2007):

Assays:
[1] = test system: HEK293(β3) s.c. tumors; assay: Whole body in vivo optical imaging (fluorescence reflectance) of tumor-bearing mice; design: species or system Swiss nude mice
[2] = test system: HEK293(β3) s.c. tumors; assay: Histological distribution of RGD-peptides in excised tumors (CLSM); format: in vivo, Swiss nude mice; details: HEK293(β3) s.c. tumor excised 3 hr after 10 nmol i.v., cryosections
Description: Sections of 20–30 μm thickness were fixed with 2% paraformaldehyde at room temperature for 10 min. The nuclei were stained with 5 μM Hoechst 33342, and the coverslips were mounted using Mowiol and kept at 4°C in the dark until observation using CLSM.

[3] = test system: HEK293(β1) cells (αVβ3-negative); assay: In vitro binding of Cy5-labeled peptides, confocal laser scanning microscopy; format: cell-based, human; details: 0.1 μM Cy5-labeled peptide, 30 min, 37°C, result in words
Description: (§1) Cells were seeded on sterilized 18-mm-diameter glass coverslips in 12-well plates (3 × 10^5 cells per well), and incubated overnight at 37°C. […] They were then washed with PBS, fixed with 2% paraformaldehyde at room temperature for 10 min. The nuclei were stained with 5 μM Hoechst 33342, and the coverslips were inverted onto glass slides using Mowiol (Calbiochem, San Diego, CA) mounting medium.

[4] = test system: HEK293(β3) cells (high levels of αVβ3); assay: as above; format: cell-based, human; details: 0.1 μM Cy5-labeled peptide, 30 min, 37°C, result in words
Description: as §1

**Q.** How did the “tumor contrast (T/S ratio, tumor vs. skin)” value ([1]; HEK293(β3) s.c. tumor, 10 nmol i.v., 4 hr p.i., mean ± SD, n = 3–4) turn out when “Cy5-RAFT-c(-RGDfK-)4 (bicyclic or more) [Cy5-labeled tetramer: four c[-RGDfK-] grafted via oxime bond on RAFT cyclic decapeptide, Cy5 on the opposite side lysine]” was run?
**A.** 15.9 ± 3.6

**Q.** And the “renal uptake” value ([1]; i.v. injection, tumor-bearing or normal mice, not modified by excess of unlabeled tetramer or monomer)?
**A.** higher renal uptake than Cy5-cRGD

**Q.** And the tumor/skin ratio ([1]; intravenous injection, HEK293(β3) tumors, time not stated (abstract))?
**A.** above 15

**Q.** And the “distribution / internalization in tumor cells of excised tumors (CLSM, words)” value [2]?
**A.** massively internalized by tumor cells

**Q.** And the “binding to HEK293(β1) cells (CLSM)” value [3]?
**A.** none of these peptides bound

**Q.** What about the “binding to HEK293(β3) cells (CLSM)” value [4] of the same substance?
**A.** very strongly
